The experiment has as its target T1, MLO-Y4 cell surface proteins (Mus musculus, UniProt P41216).
T1 construct: endogenous in cells; host or cells: MLO-Y4
T1 sequence (P41216 1-699): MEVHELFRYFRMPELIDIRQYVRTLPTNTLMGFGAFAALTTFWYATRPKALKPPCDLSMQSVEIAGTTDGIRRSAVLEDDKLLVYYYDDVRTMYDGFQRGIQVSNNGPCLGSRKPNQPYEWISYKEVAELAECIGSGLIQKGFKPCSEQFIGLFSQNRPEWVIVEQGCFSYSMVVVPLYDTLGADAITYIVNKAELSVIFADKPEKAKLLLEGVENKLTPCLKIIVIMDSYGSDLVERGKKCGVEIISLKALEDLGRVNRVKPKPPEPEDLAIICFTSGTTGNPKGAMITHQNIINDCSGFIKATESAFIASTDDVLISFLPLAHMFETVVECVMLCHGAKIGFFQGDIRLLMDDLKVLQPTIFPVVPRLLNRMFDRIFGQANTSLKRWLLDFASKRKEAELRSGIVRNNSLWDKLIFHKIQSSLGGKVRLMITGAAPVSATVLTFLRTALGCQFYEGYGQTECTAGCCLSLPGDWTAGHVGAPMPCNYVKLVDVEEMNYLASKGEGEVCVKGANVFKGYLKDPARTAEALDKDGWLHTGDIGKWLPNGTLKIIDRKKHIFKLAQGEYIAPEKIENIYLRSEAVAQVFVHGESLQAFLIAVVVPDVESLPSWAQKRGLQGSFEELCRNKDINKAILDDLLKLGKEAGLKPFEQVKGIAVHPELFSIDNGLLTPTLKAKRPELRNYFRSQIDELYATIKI
Kind of experiment: Crosslinking/co-immunoprecipitation/mass spectrometry (TMT quantitative proteomics) to identify irisin receptors. The format is binding. The following applies: co-precipitated protein Acsl1 (ACSL1_MOUSE). The method in brief:
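Relative protein abundance came from 6-plex TMT MS3 quantitation on an Orbitrap Fusion Lumos, after in-gel trypsin digestion of Coomassie-stained SDS-PAGE lanes. Input was a Ni-NTA pulldown (250 mM imidazole elution) of lysates from murine MLO-Y4 cells. These cells were treated on ice with His-tagged irisin or adipsin (10 nM, 20 min) in serum-free medium, then crosslinked with 1.5 mM DTSSP for 30 min.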

For the substance adipsin, the TMT signal-to-noise ratio was 361.33.

The values are drawn from patent US20210063414A1, “METHODS FOR PREVENTING AND/OR TREATING BONE LOSS CONDITIONS BY MODULATING IRISIN” (Dana-Farber Cancer Institute, Inc., priority 2018, published 2021).
